Results reported in patent US20200299380A1 (published 2020).

Target: T1, recombinant human MICA extracellular domain recombinant-His protein (MICA*001 allele) (human, UniProt Q29983 24-297)
T1 construct: also called MICA*001-His; MICA-His; not shown: His tag
T1 sequence: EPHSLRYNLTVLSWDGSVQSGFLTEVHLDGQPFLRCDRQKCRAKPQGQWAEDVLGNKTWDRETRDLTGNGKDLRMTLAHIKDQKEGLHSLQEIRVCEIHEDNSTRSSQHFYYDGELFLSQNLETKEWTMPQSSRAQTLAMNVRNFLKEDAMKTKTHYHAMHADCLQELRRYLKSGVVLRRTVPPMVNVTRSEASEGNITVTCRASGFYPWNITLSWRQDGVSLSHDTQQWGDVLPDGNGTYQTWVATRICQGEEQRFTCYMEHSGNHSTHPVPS
Assay: SPR (Biacore T100), bivalent mean KD at pH 7.4, MICA*001-His on NTA chip, antibody injected
Method: The binding of 6E4, 20C6 and 16A8 to either recombinant human MICA extracellular domain recombinant protein monomers or dimers (MICA*019 allele-Fc protein or MICA*001-His protein) as well as other NKG2D ligands MICB and ULBP1-2 was analyzed by Surface Plasmon Resonance (SPR) using a Biacore T100 apparatus to obtain monovalent and bivalent affinity, respectively.
Each cycle consisted of three steps. Firstly, the NTA chip was activated with NiSO₄ (500 mM). Secondly, the MICA-His protein (diluted to 10 μg/ml in running buffer HBS-P) was immobilized onto the surface via a 2 min injection at a constant flowrate of 10 μL/min. Then the antibody was injected over the immobilized antigen for 2 min at the flow rate of 40 μl/min. Subsequently, the running buffer was injected for 5 min at 40 μl/min for antibody dissociation analysis. After each cycle, the surface was regenerated by a 60s injection of 0.5M EDTA, pH 8.3 to completely strip the surface of the remaining antigen and antibody. The resulting sensorgrams were analyzed by global fitting using the appropriate model.

Kd: 0.62 pM
B1: biotin-conjugated mouse antibody 9C10 (antibody, V domains shown)
VH: QVQLQQPGAELVRPGTSVNLSCKASGYSFTRYWMNWVKQRPGQGLEWIGMIHPSDSETRLNQKFKDKATLTVDKSSSTAYMQLSSPTSEDSAVYYCGYGNFFYVMDYWGQGTSVTVSS
VL: DILLTQSPAILSVSPGERVSFSCRASQSIGTSIHWYQQRTNGSPRLLIKFASESISGIPSRFSGSGSGTDFTLNINSVESEDIADYYCQQSNFWPFTFGSGTKLEVK
notes: also called 9C10 (mouse)
